From patent US20240228562A1, “NOVEL LIPOCALIN MUTEINS SPECIFIC FOR CONNECTIVE TISSUE GROWTH FACTOR (CTGF)” (PIERIS PHARMACEUTICALS GMBH, priority 2021, published 2024)
Marks after values point to notes of the source that are not given here.

What was measured:
Mouse lung PK = assay type: in vivo; details: mice
Protocol: The lipocalin mutein (100 μg/mouse) was oropharyngeally administered to mice, and exposure in different compartments was measured after 2, 4, 8 and 24 h by ELISA (FIG. 7A). 100 μg of the antibody were administered to mice via intravenous infusion, and exposure was measured after 1, 8, 24 and 96 h by ELISA (FIG. 7B).

[1] = system: CCL-206 lung fibroblasts co-cultured with primary murine Epcam-positive epithelial progenitor cells; assay: Lung organoid formation model; assay type: cell-based; details: 14 days treatment; nintedanib 100 nM; SEQ ID NO: 74 at 100 nM
Protocol: The effect of CTGF-targeting lipocalin muteins was analyzed using an organoid model for lung regeneration. In this model, CCL-206 lung fibroblasts are co-cultured with freshly isolated primary murine Epcam-positive epithelial progenitor cells, and the number of formed organoids is analyzed after 14 days. TGF-b1 pre-treatment of CCL-206 fibroblasts leads to an impaired organoid formation and resembles an impairment of lung regeneration as for example observed in lung disease, such as IPF. The impaired formation of organoids can be rescued by treatment with different drugs, such as nintedanib, which is used as a positive control in this model. […] Analysis of organoid numbers confirmed the impairment of organoid formation by TGF-b1 stimulation.

[2] = mutein 100 μg oropharyngeal, antibody 100 μg intravenous, compartment of administration set to 100%

Row | Molecule | Exposure in the lung (Mouse lung PK; 100 μg/mouse oropharyngeal, 2-24 h, ELISA) | Lung exposure compared to plasma (Mouse lung PK; [2]) | Plasma exposure compared to lung (Mouse lung PK; [2]) | Plasma exposure compared to lung (Mouse lung PK; mutein 100 μg oropharyngeal, antibody 100 μg intravenous, compartment of administration set to 100%, listed as 23) [%] | Effect on TGF-b1 impaired organoid formation [1]
1 | SEQ ID NO: 23: optimized CTGF-binding hNGAL lipocalin mutein (protein, lipocalin mutein) QDSTSDLIPAPPLSKVPLQQNFQDNQFQGKWYVVGVAGNAILRPDKQPAKMFATIYELKEDKSYDVTSVRFEAKSCKYTIKTFVPGSQPGEFTSGQIKSAPGQTSTLVRVVSTNYNQHAMVFFKHVSQNREIFVITLYGRTKELTSELKENFIRFSKSLGLPENHIVFPVPIDQCIDG | significant exposure in the lung over 24 h | 100* % | approx. 1% | 0.9 | 
2 | SEQ ID NO: 74: fusion protein comprising two CTGF-binding lipocalin muteins (protein, fusion protein) QDSTSDLIPAPPLSKVPLQQNFQDNQFQGKWYVVGLAGNAILREDKQPAKMFATIYELKEDKSYDVTSVRFEAKSCKYTIKTFVPGSQPGEFTAGYIKSAPGQTSTLVRVVSTNYNQHAMVFFKHVTQNREIFVITLYGRTKELTSELKENFIRFSKSLGLPENHIVFPVPIDQCIDGGGGGSGGGGSGGGGSQDSTSDLIPAPPLSKVPLQQNFQDNQFQGKWYVVGWAGNVKLREDKQPQKMSATIYELKEDKSYDVTEVVFEQKKCHYIIKTFVPGSQPGEFTAGDIKSPPGYTSSLVRVVSTNYNQHAMVFFKKVSQNREFFWITLYGRTKELTSELKENFIRFSKSLGLPENHIVFPVPIDQCIDG |  |  |  |  | even stronger trend for improved organoid formation
